Test results taken from the supplement of paper PMC9112550, “Optimization of the antimicrobial peptide Bac7 by deep mutational scanning” (BMC Biology, 2022).

test system: Escherichia coli TOP10; assay: shrunken log2 fold change of peptide-encoding DNA abundance (4.5 h post-induction vs induction); higher = less antimicrobial activity (less host growth inhibition); settings: time post-induction: 4.5 h; library: site-saturation at positions 5, 18, 19, 20
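Also: peptides expressed intracellularly from a pBAD plasmid library in pooled LB shake-flask culture, induced with 0.3% L-arabinose, DNA abundance read by NGS, three biological replicates, DESeq2 with apeglm shrinkage.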

Sequence | shrunken log2 fold change
RRIRHRPPRLPRPRPRPCDLPRP | -0.502
RRIRHRPPRLPRPRPRPNKQPRP | -0.545
RRIRNRPPRLPRPRPRPCCPPRP | -0.0502
RRIRYRPPRLPRPRPRPHWFPRP | -0.402
RRIRVRPPRLPRPRPRPLWKPRP | -0.0321
RRIRPRPPRLPRPRPRPMLYPRP | -0.0392
RRIRLRPPRLPRPRPRPAHEPRP | 0.408
RRIRMRPPRLPRPRPRPDPMPRP | 0.501
RRIRHRPPRLPRPRPRPDWIPRP | -0.111
RRIRPRPPRLPRPRPRPFCEPRP | 0.0972
RRIRKRPPRLPRPRPRPWREPRP | 0.184
RRIRDRPPRLPRPRPRPFNAPRP | -0.0419
RRIRCRPPRLPRPRPRPDRLPRP | -0.335
RRIRPRPPRLPRPRPRPRSEPRP | 0.564
RRIRKRPPRLPRPRPRPVLRPRP | 0.0359
RRIRIRPPRLPRPRPRPRYGPRP | -0.411
RRIRIRPPRLPRPRPRPHSTPRP | -0.428
RRIRQRPPRLPRPRPRPSAVPRP | -0.126
RRIRGRPPRLPRPRPRPEPAPRP | 1.69
RRIRERPPRLPRPRPRPDRCPRP | 0.0731
RRIRPRPPRLPRPRPRPAIQPRP | -0.00944
RRIRPRPPRLPRPRPRPSRVPRP | 0.269
RRIRKRPPRLPRPRPRPMSCPRP | 0.0384
RRIRNRPPRLPRPRPRPKMNPRP | -0.381
RRIRHRPPRLPRPRPRPPASPRP | 1.36

Sequence | shrunken log2 fold change
RRIRMRPPRLPRPRPRPNGCPRP | 0.254
RRIRFRPPRLPRPRPRPMDRPRP | 0.0616
RRIRMRPPRLPRPRPRPTYTPRP | -0.173
RRIRERPPRLPRPRPRPVQQPRP | -0.168
RRIRQRPPRLPRPRPRPFFFPRP | 0.0337
RRIRRRPPRLPRPRPRPRVRPRP | 0.649
RRIRSRPPRLPRPRPRPCIFPRP | -0.471
RRIRWRPPRLPRPRPRPWGIPRP | 0.0114
RRIRNRPPRLPRPRPRPGNYPRP | 0.224
RRIRGRPPRLPRPRPRPRVCPRP | 1.1
RRIRHRPPRLPRPRPRPPPEPRP | 0.836
RRIRHRPPRLPRPRPRPSWAPRP | 0.19
RRIRYRPPRLPRPRPRPLTHPRP | -0.845
RRIRWRPPRLPRPRPRPLECPRP | 0.0173
RRIRFRPPRLPRPRPRPFMWPRP | -0.168
RRIRSRPPRLPRPRPRPVWRPRP | 0.33
RRIRKRPPRLPRPRPRPPPQPRP | 1.02
RRIRLRPPRLPRPRPRPNIEPRP | -0.304
RRIRLRPPRLPRPRPRPRQDPRP | 0.152
RRIRGRPPRLPRPRPRPAENPRP | 0.996
RRIRSRPPRLPRPRPRPEVLPRP | -0.0111
RRIRVRPPRLPRPRPRPRPQPRP | 0.365
RRIRSRPPRLPRPRPRPVLKPRP | -0.0386
RRIRGRPPRLPRPRPRPGYEPRP | 0.365
RRIRMRPPRLPRPRPRPIYLPRP | -0.268

Sequence | shrunken log2 fold change
RRIRERPPRLPRPRPRPEYSPRP | -0.422
RRIRNRPPRLPRPRPRPDRRPRP | -0.115
RRIRLRPPRLPRPRPRPKKFPRP | -0.322
RRIRRRPPRLPRPRPRPLAYPRP | -0.00715
RRIRERPPRLPRPRPRPMTGPRP | -0.0422
RRIRQRPPRLPRPRPRPVLCPRP | -0.238
RRIRYRPPRLPRPRPRPGRSPRP | -0.184
RRIRARPPRLPRPRPRPVSYPRP | -0.133
RRIRCRPPRLPRPRPRPEDLPRP | 0.117
RRIRTRPPRLPRPRPRPCTSPRP | -0.137
RRIRARPPRLPRPRPRPFKYPRP | -0.0956
RRIRGRPPRLPRPRPRPVNGPRP | -0.0658
RRIRGRPPRLPRPRPRPWWNPRP | -0.148
RRIRTRPPRLPRPRPRPTTEPRP | -0.16
RRIRMRPPRLPRPRPRPEFPPRP | 0.745
RRIRPRPPRLPRPRPRPTRKPRP | 0.483
RRIRSRPPRLPRPRPRPSWDPRP | 0.364
RRIRIRPPRLPRPRPRPVGKPRP | -0.118
RRIRMRPPRLPRPRPRPKGCPRP | -0.0257
RRIRLRPPRLPRPRPRPKPNPRP | 0.288
RRIRNRPPRLPRPRPRPNDNPRP | -0.734
RRIRKRPPRLPRPRPRPVPYPRP | -0.0558
RRIRARPPRLPRPRPRPYAEPRP | -0.104
RRIRLRPPRLPRPRPRPNAPPRP | 0.0456
RRIRWRPPRLPRPRPRPFFSPRP | -0.101

Sequence | shrunken log2 fold change
RRIRQRPPRLPRPRPRPQHVPRP | 0.00911
RRIRTRPPRLPRPRPRPTFGPRP | 0.0406
RRIRVRPPRLPRPRPRPTALPRP | 0.388
RRIRIRPPRLPRPRPRPFQMPRP | -0.271
RRIRQRPPRLPRPRPRPWLSPRP | 0.0988
RRIRKRPPRLPRPRPRPKTDPRP | 0.343
RRIRVRPPRLPRPRPRPLRDPRP | 0.725
RRIRLRPPRLPRPRPRPGDYPRP | -0.0616
RRIRKRPPRLPRPRPRPVGWPRP | 0.897
RRIRVRPPRLPRPRPRPQVCPRP | -0.0138
RRIRPRPPRLPRPRPRPADGPRP | 0.297
RRIRCRPPRLPRPRPRPDHPPRP | 0.264
RRIRGRPPRLPRPRPRPLCRPRP | 0.598
RRIRKRPPRLPRPRPRPERHPRP | 0.105
RRIRVRPPRLPRPRPRPQLIPRP | -0.334
RRIRFRPPRLPRPRPRPQSLPRP | -0.274
RRIRCRPPRLPRPRPRPCIGPRP | -0.204
RRIRQRPPRLPRPRPRPNVYPRP | -0.222
RRIRSRPPRLPRPRPRPEIIPRP | -0.0448
RRIRERPPRLPRPRPRPTQDPRP | 0.217
RRIRGRPPRLPRPRPRPSHKPRP | -0.157
RRIRTRPPRLPRPRPRPNSIPRP | -0.0867
RRIRHRPPRLPRPRPRPKPQPRP | 0.269
RRIRRRPPRLPRPRPRPFSAPRP | -0.274
RRIRKRPPRLPRPRPRPHLCPRP | 0.0127

Sequence | shrunken log2 fold change
RRIRHRPPRLPRPRPRPRELPRP | 0.234
RRIRPRPPRLPRPRPRPFGGPRP | 0.0321
RRIRHRPPRLPRPRPRPLTIPRP | -0.207
RRIRSRPPRLPRPRPRPNWNPRP | -0.453
RRIRCRPPRLPRPRPRPLAWPRP | -0.0538
RRIRNRPPRLPRPRPRPGQAPRP | 0.0345
RRIRPRPPRLPRPRPRPGCHPRP | 0.332
RRIRPRPPRLPRPRPRPYFYPRP | -0.787
RRIRTRPPRLPRPRPRPAYKPRP | 0.0328
RRIRTRPPRLPRPRPRPFHCPRP | -0.179
RRIRKRPPRLPRPRPRPPKPPRP | 0.319
RRIRYRPPRLPRPRPRPWTPPRP | -0.0576
RRIRRRPPRLPRPRPRPLYWPRP | 0.0153
RRIRYRPPRLPRPRPRPQTIPRP | -0.0196
RRIRKRPPRLPRPRPRPYNQPRP | -0.312
RRIRTRPPRLPRPRPRPINWPRP | -0.0841
RRIRNRPPRLPRPRPRPQTDPRP | -0.19
RRIRQRPPRLPRPRPRPLTKPRP | 0.184
RRIRRRPPRLPRPRPRPHKPPRP | -0.176
RRIRQRPPRLPRPRPRPSSVPRP | 0.00784
RRIRKRPPRLPRPRPRPSTNPRP | 0.0826
RRIRQRPPRLPRPRPRPWSAPRP | -0.277
RRIRERPPRLPRPRPRPHEWPRP | -0.155
RRIRMRPPRLPRPRPRPVVVPRP | -0.0177
RRIRFRPPRLPRPRPRPDIFPRP | -0.396

Sequence | shrunken log2 fold change
RRIRNRPPRLPRPRPRPRDAPRP | -0.163
RRIRCRPPRLPRPRPRPCFAPRP | -0.162
RRIRYRPPRLPRPRPRPVNPPRP | -0.0594
RRIRIRPPRLPRPRPRPSVHPRP | -0.278
RRIRERPPRLPRPRPRPSSPPRP | -0.824
RRIRVRPPRLPRPRPRPQICPRP | -0.185
RRIRNRPPRLPRPRPRPMRAPRP | 0.517
RRIRYRPPRLPRPRPRPNPAPRP | 0.0854
RRIRARPPRLPRPRPRPHGYPRP | 0.0466
RRIRMRPPRLPRPRPRPIVVPRP | 0.0203
RRIRQRPPRLPRPRPRPRYAPRP | 0.0355
RRIRLRPPRLPRPRPRPFPCPRP | 0.0233
RRIRCRPPRLPRPRPRPGLHPRP | -0.131
RRIRFRPPRLPRPRPRPPWPPRP | 0.564
RRIRYRPPRLPRPRPRPADLPRP | -0.00419
RRIRDRPPRLPRPRPRPLSKPRP | 0.132
RRIRQRPPRLPRPRPRPASQPRP | 0.0572
RRIRQRPPRLPRPRPRPMDNPRP | -0.367
RRIRSRPPRLPRPRPRPTKIPRP | 0.00311
RRIRMRPPRLPRPRPRPYKDPRP | -0.947
RRIRERPPRLPRPRPRPQLAPRP | 0.00697
RRIRYRPPRLPRPRPRPMLHPRP | -0.404
RRIRRRPPRLPRPRPRPEFIPRP | -0.0197
RRIRCRPPRLPRPRPRPIGCPRP | -0.00449
RRIRWRPPRLPRPRPRPVPIPRP | -0.0691
